Laboratory results: US20150260731A1 (ACUMEN PHARMACEUTICALS, published 2015)

Target: T1, amyloid β-derived diffusible ligands (ADDLs), oligomers of Aβ1-42
T1 construct: number of chains not fixed; also called Aβ oligomers; Aβ1-42 oligomers
Assay: sandwich ELISA, 6E10 as capture and as detection antibody, Aβ oligomers titrated (log RFU axis)

B1: 6E10 (antibody, V domains shown)
VH: EVQLQQSGAELVKPGASVKLCTASGFNIKDTYIHWVKQRPEQGLEWIGRFDPVNVNTRYDSRFRGKATITSDASSNTAYLHLNSLTSEDTAVYYCSRSYYNGRRRFTYWGQGTLVTVSA
VL: DIVMTQSPSSLTVTAGEKVALTCKASQSLLSSGNQKNYLTWYQQKPGQPPKLLIYWASIRESGVPDRFTGSGSGTFFTLTISSVQAEDLAVYYCQNDYNYPFTFGSGTKLEIK
EC50 (read off the curve): ~5 nM
